# Measurements as given in patent publication US20250388664A1 (BIOARCTIC, published 2025).
# Read-outs that look alike come from different tables or passages of the source.
# T1: truncated cTfR1 of SEQ ID NO:123 (cynomolgus monkey, UniProt Q5RDH6 122-760 (Pongo abelii entry))
# T1 construct: also called cynomolgus TfR1
# T1 chain: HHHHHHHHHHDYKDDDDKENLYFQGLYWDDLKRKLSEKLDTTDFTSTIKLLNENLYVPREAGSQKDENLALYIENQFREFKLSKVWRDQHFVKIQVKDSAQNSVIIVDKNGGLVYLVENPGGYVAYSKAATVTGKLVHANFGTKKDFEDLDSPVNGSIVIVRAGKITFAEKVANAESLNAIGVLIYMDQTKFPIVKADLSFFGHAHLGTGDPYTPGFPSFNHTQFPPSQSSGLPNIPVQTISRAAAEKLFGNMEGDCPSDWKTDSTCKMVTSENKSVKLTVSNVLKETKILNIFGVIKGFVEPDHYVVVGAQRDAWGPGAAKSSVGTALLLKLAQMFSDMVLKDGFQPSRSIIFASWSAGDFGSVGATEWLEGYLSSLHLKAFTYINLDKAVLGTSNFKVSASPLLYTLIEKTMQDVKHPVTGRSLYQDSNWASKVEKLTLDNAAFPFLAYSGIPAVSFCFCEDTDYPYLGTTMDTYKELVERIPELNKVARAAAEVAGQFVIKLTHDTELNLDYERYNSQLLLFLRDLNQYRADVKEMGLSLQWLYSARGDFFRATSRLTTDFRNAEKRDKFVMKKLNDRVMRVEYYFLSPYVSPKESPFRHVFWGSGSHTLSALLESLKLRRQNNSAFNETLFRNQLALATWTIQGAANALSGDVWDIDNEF
# B1: h26D3 variant LC5 Fab (Fab, V domains shown)
# VH: EVQLVQSGAEVKKPGSSVKVSCKASGYIFTDYNMDWVRQAPGQGLEWIGDINPDYDTTSYNEKFKGRATLTVDKSTSTAYMELSSLRSEDTAVYYCARGGYSGSSYYHPMDYWGQGTLVTVSS
# VL: DIQMTQSPSSVSASVGDRVTITCKSSQSLLYSTNQKNYLAWYQQKPGKAPKLLIYWASTRESGVPSRFSGSGSGTDFTLTISSLQPEDFATYYCQQAFIYPRTFGQGTKVEIK
# notes: Single-mutant His-tagged Fab; also called Y97A
# B2: BA003 (antibody, human IgG1, kappa)
# light: EIVLTQSPLSLSVTLGQSASISCRSSQSLLDSNGKTYLHWFILRPGQSPRRLIYLVSILDSGVPDRFSGSGSGTDFTLKISRVEAEDVGVYYCVQGTHFPFTFGSGTKLEIKRTVAAPSVFIFPPSDEQLKSGTASVVCLLNNFYPREAKVQWKVDNALQSGNSQESVTEQDSKDSTYSLSSTLTLSKADYEKHKVYACEVTHQGLSSPVTKSFNRGEC
# heavy: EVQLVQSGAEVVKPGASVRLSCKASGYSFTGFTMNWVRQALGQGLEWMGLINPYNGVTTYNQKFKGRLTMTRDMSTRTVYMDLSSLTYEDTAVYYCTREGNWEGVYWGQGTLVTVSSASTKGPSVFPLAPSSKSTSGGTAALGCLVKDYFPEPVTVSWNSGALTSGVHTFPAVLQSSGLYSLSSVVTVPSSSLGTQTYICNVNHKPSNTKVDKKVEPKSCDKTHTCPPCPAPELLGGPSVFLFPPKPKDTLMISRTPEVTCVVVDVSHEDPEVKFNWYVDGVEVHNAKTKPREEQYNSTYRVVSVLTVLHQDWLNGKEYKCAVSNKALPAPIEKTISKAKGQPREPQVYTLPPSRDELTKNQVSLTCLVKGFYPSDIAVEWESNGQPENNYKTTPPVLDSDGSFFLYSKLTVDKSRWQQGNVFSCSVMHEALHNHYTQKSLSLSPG
# notes: also called comparator antibody BA003; control antibody BA003
# B3: 26D3-Fab (Fab, V domains shown)
# VH: EVQLQQFGVELVKPGASVKISCKASGYIFTDYNMDWVKQSHGKSLEWIGDINPDYDTTSYNEKFKGKATLTVDKSSSTAYMELRSLTSEDTAVYYCARGGYSGSSYYHPMDYWGQGTSVTVSS
# VL: DIVMSQSPSSLAVSVGEKITMSCKSSQSLLYSTNQKNYLAWYQQKPGQSPELLIYWASTRESGVPDRFTGSGSGTDFTLTISNVRAEDLAVYYCQQYFIYPRTFGGGTKLEIK
# notes: Fab of murine 26D3; also called murine 26D3 Fab
# B4: 37D10-Fab (Fab, V domains shown)
# VH: QVQLQQSGAELVRPGTSVKISCKASGYAFTNYWLGWVKQRPGHGLEWIGDIFPGSDNTYYNEKFKGKATLTADKSSSTAYMQLSSLASEDSAVYFCARSGNFYAMDYWGQGTSVTVSS
# VL: ENVLTQSPAIMSASPGEKVTMTCSASSSVNYMNWYQQKSSTFPKLWIYDTSKLASGVPGRFSGSGSGKFYSLTISSMEAEDVATYYCFQGSGYPFTFGSGTKLEIK
# notes: Fab of murine 37D10
# How the values were obtained:
# [1] = target: T2, truncated hTfR1 of SEQ ID NO:122 (human, UniProt P02786 122-760); assay: SPR, TfR1 amine-coupled, Fab injected, 1:1 fit
# T2 construct: also called human TfR1; Human TfR1
# Procedure: (§1) Binding of the purified Fabs to human and cynomolgus TfR1 was evaluated using either SPR (FIG. 44) or indirect ELISA (FIG. 45). For SPR, a Biacore 8K instrument (Cytiva) was used. […] The Fabs were injected over the chip using a 2-fold dilution series in four steps starting at 100 nM. The interaction was measured using the single cycle kinetics method with a contact time of 120 s at a flow rate of 30 μl/min followed by a dissociation time of 1000 s. Regeneration of the surface between cycles was done by injecting 3M MgCl₂. The binding data was fitted to a 1:1 interaction model. The Fabs were diluted in HBS-EP+ (Cytiva, #BR100669). Experiments were performed at 25° C.
# [2] = target: T1, truncated cTfR1 of SEQ ID NO:123; assay: SPR (Biacore 8K), single cycle kinetics: cTfR1 amine-coupled on a CM5 chip, Fab injected in a 2-fold series of four steps from 100 nM
# Procedure: as §1
# AβpE3-40 monomer [3] = target: T3, AβpE3-40 monomer (UniProt P05067 674-711, pyroglutamate at position 3 (N-terminal residue)); assay: cell-based or functional assay
# T3 sequence (P05067 674-711): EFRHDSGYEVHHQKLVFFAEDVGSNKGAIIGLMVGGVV
# AβpE3-40 monomer [4] = target: T3, AβpE3-40 monomer; assay: SPR, antibody immobilised, monomer injected, 1:1 fit
# Procedure: Single cycle kinetics with the binding molecules immobilized on a CM5 chip was used to measure binding to the AβpE3-40 monomer. For the measurements, 5 μg/ml of analyte binding molecule was immobilized on the chip. […] Regeneration of the surface between cycles was done by injecting 30 μl 3 M MgCl₂ (Cytiva, cat. No. 29234600). The binding data was fitted to a 1:1 interaction model.
# AβpE3-40 monomer [5] = target: T3, AβpE3-40 monomer; assay: inhibition ELISA, antigen titrated in solution, AβpE3-40 coat
# Procedure: (§2) The tested molecules were incubated at a fixed concentration (0.1 μg/ml) with titrating concentrations of the different AβpE3 antigens. After incubation for 45 min at 900 rpm to reach equilibrium, the samples were added to a blocked and washed ELISA plate with an AβpE3-40 coat (0.5 μM). The samples were incubated on the plate for 25 min without shaking followed by washing, incubation with detection antibody, another washing step and finally incubation with alkaline phosphatase substrate.
# AβpE3-42 protofibrils = target: T4, AβpE3-42 protofibrils (UniProt P05067 674-713, pyroglutamate at position 3 (N-terminal residue)); assay: as above
# T4 construct: range 3-42 (Aβ numbering); Soluble aggregates made from AβpE3-42 peptide, purified in the void peak of SEC; also called AβpE3-42 PF
# T4 sequence (P05067 674-713): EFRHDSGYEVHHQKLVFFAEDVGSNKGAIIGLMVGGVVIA
# Procedure: as §2
# hTfR1 on cell surfaces = target: T5, hTfR1 on cell surfaces (human, UniProt P02786 1-760); assay: flow cytometry on Fc-blocked K562 cells, 1 h at 4°C, detection with PE anti-human IgG Fc
# T5 construct: Endogenous receptor on human cell lines; also called endogenous hTfR1 on hCMEC/D3, THP-1 and K562 cells; CD71
# [6] = target: T2, truncated hTfR1 of SEQ ID NO:122; assay: SPR, TfR1 amine-coupled, Fab injected, 1:1 fit; remark: listed apart in the source
# Procedure: (§3) The interaction was measured using the single cycle kinetics method with a contact time of 120 s at a flow rate of […] followed by a dissociation time of 600 s. Regeneration of the surface between cycles was done by injecting 3M MgCl₂. The binding data were fitted to a 1:1 interaction model. The Fabs were diluted in HBS-EP+ (Cytiva, #BR100669). Experiments were performed at 25° C.
# [7] = target: T1, truncated cTfR1 of SEQ ID NO:123; assay: SPR, TfR1 amine-coupled, Fab injected, 1:1 fit
# Procedure: as §3
# [8] = target: T6, hTfR1 (recombinant, construct not specified) (human, UniProt P02786 89-760, limits assumed); assay: indirect ELISA on an hTfR1 coat, detection with anti-mouse IgG F(ab')2, normalised A450 against log antibody concentration in pM
# T6 construct: also called biotinylated hTfR1
# [9] = target: T6, hTfR1 (recombinant, construct not …); assay: BLI: hTfR1 captured on biotinylated human holo-transferrin on streptavidin sensors, 15 nM Fab in solution, 120 s association, 300 s dissociation
# Procedure: A more detailed binding analysis by BLI was performed on purified, selected antibodies. […] For example, the BLI instrument Octet Red384 was used to measure binding between immobilized TfR1 and the tested Fab fragments in solution. […] Antibody binding to TfR1 was measured during an association phase of 120 s and a dissociation phase of 300 s.
binder,measurement,setting,value
B1,Kd,[1],240 nM
same,binding result,[2],binds
B2,"Uptake of AβpE3-40 monomers in THP-1 cells, EC50",AβpE3-40 monomer [3],2.2 nM
same,Kd,AβpE3-40 monomer [4],2.33 nM
same,koff,AβpE3-40 monomer [4],0.000127 s⁻¹
same,kon,AβpE3-40 monomer [4],54600 M⁻¹ s⁻¹
same,IC50,AβpE3-40 monomer [5],1.1 nM
same,IC50,AβpE3-42 protofibrils,2.2 nM
same,binding result,hTfR1 on cell surfaces,no binding (tested: 10000 nM)
B3,Kd,[6],3.6 nM
same,Kd,[7],10 nM
same,EC50 (read off the curve),[8],~0.06 nM
B4,binding result,[9],binds
